{"source": "paper PMC9054839", "about": "“Mechanism of integrin activation by talin and its cooperation with kindlin” (Nature Communications, 2022)", "binders": {"B1": {"name": "full-length paxillin (natural protein)", "chain": "not shown", "notes": "also called paxiFL; paxillin-γ; source: E. coli BL21 (DE3), purified (GST column, gel filtration)"}, "B2": {"name": "GST-integrin beta3 cytoplasmic tail (domain or fragment, UniProt P05106 742-788, looked up)", "chain": "{GST}-KLLITIHDRKEFAKFEEERARAKWDTANNPLYKEATSTFTNITYRGT", "notes": "integrin β3 cytoplasmic tail; also called integrin-β3 CT; GST-integrin beta3CT; source: E. coli BL21 (DE3), purified"}, "B3": {"name": "GST-paxillin 1–160 (domain or fragment)", "chain": "not shown", "notes": "paxillin-γ, human, N-terminal 1-160 containing LD1 and LD2, in pGST-1; also called paxi1–160; source: E. coli BL21 (DE3), purified (GST column, gel filtration)"}, "B4": {"name": "talin-R8 (domain or fragment, mouse, UniProt P26039 1461-1580, looked up)", "chain": "LVEPTQFARANQAIQMACQSLGEPGCTQAQVLSAATIVAKHTSALCNSCRLASARTANPTAKRQFVQSAKEVANSTANLVKTIKALDGDFTEENRAQCRAATAPLLEAVDNLSAFASNPE", "notes": "talin (talin-1), mouse, rod subdomain R8; source: E. coli BL21 (DE3), purified"}, "B5": {"name": "talin-R2 (domain or fragment, mouse, UniProt P26039 655-782, looked up)", "chain": "IGESDTDPHFQDVLMQLAKAVASAAAALVLKAKSVAQRTEDSGLQTQVIAAATQCALSTSQLVACTKVVAPTISSPVCQEQLVEAGRLVAKAVEGCVSASQAATEDGQLLRGVGAAATAVTQALNELL", "notes": "talin (talin-1), mouse, rod subdomain R2; source: E. coli BL21 (DE3), purified"}, "B6": {"name": "talin-F3 (domain or fragment)", "chain": "GVSFFLVKEKMKGKNKLVPRLLGITKECVMRVDEKTKEVIQEWSLTNIKRWAASPKSFTLDFGDYQDGYYSVQTTEGEQIAQLIAGYIDIILKKKKS"}}, "details_in_all_cases": "both partners purified", "key": {"[1]": {"molecular_target": "T1, constitutively activated full-length talin mutant tlnM3 (M319A, T1767L, E1770K) (mouse, UniProt P26039 1-2541, M319A | T1767L | E1770K)", "T1 construct": "talin (talin-1), mouse, full length 1-2541, in pET28T; also called active talin; talinFL TM; source: E. coli BL21 (DE3), purified (nickel column, Superose-6 gel filtration)", "T1 sequence (P26039 whole entry M319A/T1767L/E1770K)": "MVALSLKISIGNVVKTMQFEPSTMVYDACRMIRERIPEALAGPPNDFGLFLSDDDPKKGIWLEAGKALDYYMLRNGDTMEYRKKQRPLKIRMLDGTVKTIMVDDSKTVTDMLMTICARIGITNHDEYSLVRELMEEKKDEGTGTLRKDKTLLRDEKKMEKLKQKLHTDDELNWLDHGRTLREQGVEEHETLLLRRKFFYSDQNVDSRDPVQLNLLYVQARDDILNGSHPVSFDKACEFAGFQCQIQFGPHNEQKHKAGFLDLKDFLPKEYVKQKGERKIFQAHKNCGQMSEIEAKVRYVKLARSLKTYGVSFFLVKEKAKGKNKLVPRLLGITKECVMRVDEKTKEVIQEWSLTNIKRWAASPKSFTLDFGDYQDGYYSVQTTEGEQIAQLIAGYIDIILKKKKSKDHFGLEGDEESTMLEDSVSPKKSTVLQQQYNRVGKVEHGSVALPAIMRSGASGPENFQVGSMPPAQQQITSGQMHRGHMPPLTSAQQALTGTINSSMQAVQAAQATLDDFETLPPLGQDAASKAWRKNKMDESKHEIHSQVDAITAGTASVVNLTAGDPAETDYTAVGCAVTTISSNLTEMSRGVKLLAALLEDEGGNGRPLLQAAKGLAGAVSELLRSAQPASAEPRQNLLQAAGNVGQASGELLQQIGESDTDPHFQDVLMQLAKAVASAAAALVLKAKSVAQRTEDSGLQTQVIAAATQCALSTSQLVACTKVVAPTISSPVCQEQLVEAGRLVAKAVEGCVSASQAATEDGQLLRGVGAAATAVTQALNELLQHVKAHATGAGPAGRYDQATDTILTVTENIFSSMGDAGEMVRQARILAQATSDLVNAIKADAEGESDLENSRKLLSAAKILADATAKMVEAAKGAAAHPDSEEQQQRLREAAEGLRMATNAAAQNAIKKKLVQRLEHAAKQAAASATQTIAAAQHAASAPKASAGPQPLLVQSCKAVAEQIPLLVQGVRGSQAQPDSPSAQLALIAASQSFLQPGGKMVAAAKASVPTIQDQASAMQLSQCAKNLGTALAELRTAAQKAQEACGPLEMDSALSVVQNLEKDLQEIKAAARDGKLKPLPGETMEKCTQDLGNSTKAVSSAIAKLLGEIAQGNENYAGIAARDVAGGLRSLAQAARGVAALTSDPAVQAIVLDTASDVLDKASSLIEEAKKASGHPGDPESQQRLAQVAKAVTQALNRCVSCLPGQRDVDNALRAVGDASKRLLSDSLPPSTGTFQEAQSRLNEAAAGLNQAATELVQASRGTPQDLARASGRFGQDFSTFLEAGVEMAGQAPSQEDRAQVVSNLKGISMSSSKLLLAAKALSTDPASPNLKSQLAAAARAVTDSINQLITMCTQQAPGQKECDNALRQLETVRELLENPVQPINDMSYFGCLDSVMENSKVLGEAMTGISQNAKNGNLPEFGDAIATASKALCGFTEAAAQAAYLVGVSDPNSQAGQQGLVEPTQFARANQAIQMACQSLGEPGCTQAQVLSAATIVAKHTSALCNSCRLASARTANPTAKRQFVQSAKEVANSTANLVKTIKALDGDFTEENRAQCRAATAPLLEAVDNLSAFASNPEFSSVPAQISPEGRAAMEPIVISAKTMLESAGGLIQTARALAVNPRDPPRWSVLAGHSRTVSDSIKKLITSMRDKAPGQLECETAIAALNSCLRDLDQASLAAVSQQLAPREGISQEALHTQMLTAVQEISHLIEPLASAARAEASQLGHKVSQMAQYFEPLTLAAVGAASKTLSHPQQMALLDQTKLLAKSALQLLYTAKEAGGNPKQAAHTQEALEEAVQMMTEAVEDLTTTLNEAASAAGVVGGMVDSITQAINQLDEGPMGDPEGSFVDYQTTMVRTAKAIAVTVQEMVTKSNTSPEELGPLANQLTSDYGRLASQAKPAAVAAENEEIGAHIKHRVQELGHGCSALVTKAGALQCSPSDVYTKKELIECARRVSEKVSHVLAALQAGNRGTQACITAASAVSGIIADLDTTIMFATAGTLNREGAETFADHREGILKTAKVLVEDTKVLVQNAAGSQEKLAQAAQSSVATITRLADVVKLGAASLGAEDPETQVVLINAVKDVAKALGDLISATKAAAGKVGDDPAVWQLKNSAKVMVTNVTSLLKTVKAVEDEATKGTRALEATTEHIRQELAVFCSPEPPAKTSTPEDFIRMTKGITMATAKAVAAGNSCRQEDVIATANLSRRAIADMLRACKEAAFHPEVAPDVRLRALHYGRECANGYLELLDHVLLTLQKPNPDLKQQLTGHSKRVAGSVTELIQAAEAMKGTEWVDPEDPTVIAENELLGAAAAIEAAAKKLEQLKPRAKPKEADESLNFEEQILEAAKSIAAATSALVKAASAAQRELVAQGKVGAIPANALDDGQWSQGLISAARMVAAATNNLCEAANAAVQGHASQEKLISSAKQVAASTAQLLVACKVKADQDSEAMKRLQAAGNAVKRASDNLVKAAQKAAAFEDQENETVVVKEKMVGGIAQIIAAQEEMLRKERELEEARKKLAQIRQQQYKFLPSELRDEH", "assay": "SPR; tlnM3 amine-coupled to CM5, paxiFL (0–500 nM) flowed over; 50 mM sodium phosphate pH 6.8, 150 mM NaCl, 25 °C; 1:1 model"}, "[2]": {"molecular_target": "T1, constitutively activated full-length …", "assay": "SPR; GST-integrin beta3CT amine-coupled to CM5, talinH or tlnM3 (0–125 nM) flowed over; 50 mM sodium phosphate pH 6.8, 150 mM NaCl, 0.05% Tween 20, 0.03% BSA, 25 °C"}, "[3]": {"molecular_target": "T1, constitutively activated full-length …", "assay": "pull-down; GST-paxillin (full length or fragments) on glutathione-Sepharose 4B beads, talin or talin fragments as prey; 25 mM Tris-HCl pH 7.5, 150 mM NaCl, 0.5 mM TCEP, 0.01 or 0.1% NP40, 4 °C; western blot or Coomassie"}, "paxillin 1–160": {"molecular_target": "T2, paxillin 1–160 (human, UniProt P49023-3 1-160)", "T2 construct": "paxillin-γ, human, N-terminal 1-160 containing LD1 and LD2, in pGST-1; also called paxillin-γ 1–160; paxillin N-terminal 1–160; source: E. coli BL21 (DE3), purified (GST column, gel filtration)", "T2 sequence (P49023 1-160)": "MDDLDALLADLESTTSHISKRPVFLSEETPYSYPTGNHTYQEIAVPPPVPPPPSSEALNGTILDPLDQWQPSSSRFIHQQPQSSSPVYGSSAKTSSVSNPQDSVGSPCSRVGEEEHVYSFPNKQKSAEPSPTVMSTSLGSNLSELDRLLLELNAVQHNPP", "assay": "SPR; paxillin 1–160 amine-coupled to CM5, talin subdomains (0–12 μM) flowed over; 50 mM sodium phosphate pH 6.8, 150 mM NaCl, 25 °C; talin-R1–R4 fitted by a two-state model"}}, "note": "No end group written: not given here."}
{"binder": "B1", "values": [{"measurement": "Kd", "setting": "[1]", "value": "~33.1", "unit": "nM"}, {"measurement": "stoichiometry N", "setting": "[1]", "value": 1}]}
{"binder": "B2", "values": [{"measurement": "Kd", "setting": "[2]", "value": "~14.5", "unit": "nM"}]}
{"binder": "B3", "values": [{"measurement": "binding result", "setting": "[3]", "value": "binds"}]}
{"binder": "B4", "values": [{"measurement": "Kd", "setting": "paxillin 1–160", "value": "~5370", "unit": "nM"}]}
{"binder": "B5", "values": [{"measurement": "Kd", "setting": "paxillin 1–160", "value": "~2210", "unit": "nM"}]}
{"binder": "B6", "values": [{"measurement": "Kd", "setting": "paxillin 1–160", "value": "~3510", "unit": "nM"}]}
